Laboratory results: the Human Domainome abundance scans (Beltran et al. 2025)
± gives the uncertainty stated by the source.

B1: POU domain, class 2, transcription factor 3, residues 186 to 260; numbered along this chain, Q9UKI9 (parent)
chain: SDLEELEKFAKTFKQRRIKLGFTQGDVGLAMGKLYGNDFSQTTISRFEALNLSFKNMCKLKPLLEKWLNDAESSP

Variants of: B1
Test: abundance fitness (aPCA) (normalised: wild type 0, dead -1); higher = more abundant; growth selection in yeast, the domain comes from the species named
Conditions: Homo sapiens

SDLEELEKFAKTFKQRRIKLGFTQGDVGLAMGKLYGNDFSQTTISRFEALNLSFKNMAKLKPLLEKWLNDAESSP [C58A] and SDLEELEKFAKTFKQRRIKLGFTQGDVGLAMGKLYGNDFSQTTISRFEALNLSFKNMDKLKPLLEKWLNDAESSP [C58D] are within error of each other in abundance fitness: 0.027 ± 0.036 for the first, -0.04 ± 0.051 for the second.

SDLEELEKFAKTFKQRRIKLGFTQGDVGLAMGKLYGNDFSQTTISRFEALNLSFKNMEKLKPLLEKWLNDAESSP [C58E] and SDLEELEKFAKTFKQRRIKLGFTQGDVGLAMGKLYGNDFSQTTISRFEALNLSFKNMFKLKPLLEKWLNDAESSP [C58F] are within error of each other in abundance fitness: -0.039 ± 0.046 for the first, 0.005 ± 0.06 for the second.

SDLEELEKFAKTFKQRRIKLGFTQGDVGLAMGKLYGNDFSQTTISRFEALNLSFKNMGKLKPLLEKWLNDAESSP [C58G] and SDLEELEKFAKTFKQRRIKLGFTQGDVGLAMGKLYGNDFSQTTISRFEALNLSFKNMHKLKPLLEKWLNDAESSP [C58H] are within error of each other in abundance fitness: -0.031 ± 0.029 for the first, -0.052 ± 0.13 for the second.

SDLEELEKFAKTFKQRRIKLGFTQGDVGLAMGKLYGNDFSQTTISRFEALNLSFKNMIKLKPLLEKWLNDAESSP [C58I] and SDLEELEKFAKTFKQRRIKLGFTQGDVGLAMGKLYGNDFSQTTISRFEALNLSFKNMKKLKPLLEKWLNDAESSP [C58K] are within error of each other in abundance fitness: 0.01 ± 0.055 for the first, -0.058 ± 0.068 for the second.

SDLEELEKFAKTFKQRRIKLGFTQGDVGLAMGKLYGNDFSQTTISRFEALNLSFKNMLKLKPLLEKWLNDAESSP [C58L] and SDLEELEKFAKTFKQRRIKLGFTQGDVGLAMGKLYGNDFSQTTISRFEALNLSFKNMMKLKPLLEKWLNDAESSP [C58M] are within error of each other in abundance fitness: -0.02 ± 0.033 for the first, -0.005 ± 0.045 for the second.

Going from SDLEELEKFAKTFKQRRIKLGFTQGDVGLAMGKLYGNDFSQTTISRFEALNLSFKNMNKLKPLLEKWLNDAESSP [C58N] to SDLEELEKFAKTFKQRRIKLGFTQGDVGLAMGKLYGNDFSQTTISRFEALNLSFKNMPKLKPLLEKWLNDAESSP [C58P], the abundance fitness falls from -0.005 ± 0.067 to -0.474 ± 0.083.

SDLEELEKFAKTFKQRRIKLGFTQGDVGLAMGKLYGNDFSQTTISRFEALNLSFKNMRKLKPLLEKWLNDAESSP [C58R] and SDLEELEKFAKTFKQRRIKLGFTQGDVGLAMGKLYGNDFSQTTISRFEALNLSFKNMSKLKPLLEKWLNDAESSP [C58S] are within error of each other in abundance fitness: 0 ± 0.028 for the first, 0.026 ± 0.037 for the second.

SDLEELEKFAKTFKQRRIKLGFTQGDVGLAMGKLYGNDFSQTTISRFEALNLSFKNMTKLKPLLEKWLNDAESSP [C58T] and SDLEELEKFAKTFKQRRIKLGFTQGDVGLAMGKLYGNDFSQTTISRFEALNLSFKNMVKLKPLLEKWLNDAESSP [C58V] are within error of each other in abundance fitness: -0.09 ± 0.054 for the first, -0.019 ± 0.033 for the second.

SDLEELEKFAKTFKQRRIKLGFTQGDVGLAMGKLYGNDFSQTTISRFEALNLSFKNMWKLKPLLEKWLNDAESSP [C58W] and SDLEELEKFAKTFKQRRIKLGFTQGDVGLAMGKLYGNDFSQTTISRFEALNLSFKNMCALKPLLEKWLNDAESSP [K59A] are within error of each other in abundance fitness: 0.032 ± 0.035 for the first, -0.013 ± 0.03 for the second.

SDLEELEKFAKTFKQRRIKLGFTQGDVGLAMGKLYGNDFSQTTISRFEALNLSFKNMCDLKPLLEKWLNDAESSP [K59D] and SDLEELEKFAKTFKQRRIKLGFTQGDVGLAMGKLYGNDFSQTTISRFEALNLSFKNMCELKPLLEKWLNDAESSP [K59E] are within error of each other in abundance fitness: -0.039 ± 0.055 for the first, 0.053 ± 0.037 for the second.

Compared with SDLEELEKFAKTFKQRRIKLGFTQGDVGLAMGKLYGNDFSQTTISRFEALNLSFKNMCFLKPLLEKWLNDAESSP [K59F], SDLEELEKFAKTFKQRRIKLGFTQGDVGLAMGKLYGNDFSQTTISRFEALNLSFKNMCGLKPLLEKWLNDAESSP [K59G] is lower in abundance fitness: 0.06 ± 0.065 for the first, -0.086 ± 0.027 for the second.

SDLEELEKFAKTFKQRRIKLGFTQGDVGLAMGKLYGNDFSQTTISRFEALNLSFKNMCHLKPLLEKWLNDAESSP [K59H] and SDLEELEKFAKTFKQRRIKLGFTQGDVGLAMGKLYGNDFSQTTISRFEALNLSFKNMCILKPLLEKWLNDAESSP [K59I] are within error of each other in abundance fitness: -0.015 ± 0.21 for the first, -0.037 ± 0.1 for the second.

SDLEELEKFAKTFKQRRIKLGFTQGDVGLAMGKLYGNDFSQTTISRFEALNLSFKNMCMLKPLLEKWLNDAESSP [K59M] and SDLEELEKFAKTFKQRRIKLGFTQGDVGLAMGKLYGNDFSQTTISRFEALNLSFKNMCNLKPLLEKWLNDAESSP [K59N] are within error of each other in abundance fitness: -0.056 ± 0.043 for the first, -0.026 ± 0.061 for the second.

Compared with SDLEELEKFAKTFKQRRIKLGFTQGDVGLAMGKLYGNDFSQTTISRFEALNLSFKNMCPLKPLLEKWLNDAESSP [K59P], SDLEELEKFAKTFKQRRIKLGFTQGDVGLAMGKLYGNDFSQTTISRFEALNLSFKNMCQLKPLLEKWLNDAESSP [K59Q] is higher in abundance fitness: -0.733 ± 0.081 for the first, -0.03 ± 0.047 for the second.

SDLEELEKFAKTFKQRRIKLGFTQGDVGLAMGKLYGNDFSQTTISRFEALNLSFKNMCSLKPLLEKWLNDAESSP [K59S] and SDLEELEKFAKTFKQRRIKLGFTQGDVGLAMGKLYGNDFSQTTISRFEALNLSFKNMCTLKPLLEKWLNDAESSP [K59T] are within error of each other in abundance fitness: -0.033 ± 0.036 for the first, -0.007 ± 0.043 for the second.

SDLEELEKFAKTFKQRRIKLGFTQGDVGLAMGKLYGNDFSQTTISRFEALNLSFKNMCVLKPLLEKWLNDAESSP [K59V] and SDLEELEKFAKTFKQRRIKLGFTQGDVGLAMGKLYGNDFSQTTISRFEALNLSFKNMCWLKPLLEKWLNDAESSP [K59W] are within error of each other in abundance fitness: -0.086 ± 0.032 for the first, -0.129 ± 0.038 for the second.

Going from SDLEELEKFAKTFKQRRIKLGFTQGDVGLAMGKLYGNDFSQTTISRFEALNLSFKNMCKAKPLLEKWLNDAESSP [L60A] to SDLEELEKFAKTFKQRRIKLGFTQGDVGLAMGKLYGNDFSQTTISRFEALNLSFKNMCKDKPLLEKWLNDAESSP [L60D], the abundance fitness falls from -0.081 ± 0.035 to -0.601 ± 0.11.

First: SDLEELEKFAKTFKQRRIKLGFTQGDVGLAMGKLYGNDFSQTTISRFEALNLSFKNMCKEKPLLEKWLNDAESSP [L60E]
Second: SDLEELEKFAKTFKQRRIKLGFTQGDVGLAMGKLYGNDFSQTTISRFEALNLSFKNMCKFKPLLEKWLNDAESSP [L60F]
The abundance fitness of the first is lower: -0.847 ± 0.095 for the first, -0.079 ± 0.066 for the second.

SDLEELEKFAKTFKQRRIKLGFTQGDVGLAMGKLYGNDFSQTTISRFEALNLSFKNMCKGKPLLEKWLNDAESSP [L60G] showed an abundance fitness of -0.79 ± 0.055.
